Reference: paper PMC314469, “Protein Interaction Networks by Proteome Peptide Scanning” (PLoS Biology, 2004)

T1: amphyphisin SH3 (AMPH_HUMAN), P49418
T1 chain: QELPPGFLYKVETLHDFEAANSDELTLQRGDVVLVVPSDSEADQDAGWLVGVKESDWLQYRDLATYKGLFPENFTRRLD


Columns and labels:
[1] = molecular target: endophilin SH3 (SH3G2_HUMAN), Q99962; test: SPOT array
[2] = molecular target: T1, amphyphisin SH3 (AMPH_HUMAN), P49418; test: SPOT array

normalised SPOT signal, Boehringer light units (BLU); mean over the file's lines of this peptide [1]	normalised SPOT signal, Boehringer light units (BLU); mean over the file's lines of this peptide [2]	Binder
49.5	42	ESQSPKRPPEDFET [Q16632 163-177]
134	192	ESRDITRPSRPADL [Q9Y6Z1 10-23]
102	660	EVITLERPLRSSSS [O15162 171-184]
102	272	AGSSPGKPPRLVGG [P01034 24-38]
8150	23200	ESPLPRRPPRAARS [P81408 388-402]
332	39.3	ESPPPKRPRIAYLS [P36508 395-408]
128	20.5	ETMYLRRPEGIERQ [Q9H5V9 75-88]
228	198	EVPDPNRPQRLGLH [O60275 1047-1060]
4.5	42.3	ERDFLKRPLESYVK [Q10472 159-172]
121	384	EVITLERPLRSNSS [Q9NRY7 86-99]
182	16.4	ETSMLKRPVLLHLQ [Q9Y6U5 44-57]
66.5	23.2	AGSDPKRPEMPSKK [P23470 686-699]
440	79.9	ETSMLKRPVLLHLH [Q9UHE8 34-47]
281	135	EVDGLSRPQRPRPR [Q9HC10 643-656]
34.9	43.8	EVLELRRPMDSRLE [P78524 857-870]
108	334	EREFLERPSRDHLY [Q12968 137-150]

normalised SPOT signal, Boehringer light units (BLU); mean over the file's lines of this peptide [1]	normalised SPOT signal, Boehringer light units (BLU); mean over the file's lines of this peptide [2]	Binder
2690	92.2	ERPPPFKPPPPPIK [P40200 535-549]
1950	8960	ESGRPIKPPRKDLP [P25440 318-332]
96.9	52.8	ESSRPVKPPKKDVP [O60885 322-336]
295	2690	ESSGPPRPSRGPAA [Q9UHD9 6-19]
0	29.5	ETLTFKRPEGMHRE [Q9NPF5 43-56]
2210	236	EVMILRRPSLQRRA [Q9ULT8 713-726]
127	39.4	ETGALRRPQLLPLL [O60896 2-15]
50.5	11.6	EREALKRPMGPVHY [Q9P0R4 128-141]
51.2	20.7	AGSSPRRPQGGSDA [Q96IQ9 293-306]
926	38.5	ETSGPERPPEKPRK [O75408 12-26]
192	539	ESRDITRPSRPASY [O60298 756-769]
63	103	EVEMLPRPPKVTKE [P11532 250-263]
220	4090	ETISPLRPQRPKSQ [Q14185 1731-1744]
122	484	EVFFPPRPERVEHN [Q16530 104-117]
1800	20700	ETNIPQRPSRPARR [Q9HBL3 239-252]
